The source of these data is article PMC9175631 (Journal of Virology, 2022).

Experiment [1] addresses T1, wild-type ZIKV prM/E (ZIKV SPH2015) (Zika virus, SPH2015, UniProt A0A0U3FSM8, strain).
T1 construct: also called WT prM/E; wild-type prM/E; source: HEK-293T, transfected, cells fixed and permeabilised
Description: flow cytometry on cells. To be noted: one partner purified. Background: A flow cytometer gives signals particle by particle.

The target in experiment [2] is ZIKV prM/E (ZIKV SPH2015), E T397A (Zika virus (ZIKV SPH2015)). Description: flow cytometry on cells.
In experiment [3] the target is ZIKV prM/E (ZIKV SPH2015), E E370A (Zika virus (ZIKV SPH2015)). Put plainly: flow cytometry on cells.
The target in experiment [4] is ZIKV prM/E (ZIKV SPH2015), E H399A (Zika virus (ZIKV SPH2015)). Put plainly: flow cytometry on cells.
Experiment [5] has as its target ZIKV prM/E (ZIKV SPH2015), prM V60A (Zika virus (ZIKV SPH2015)). Description: flow cytometry on cells.
The target in experiment [6] is ZIKV prM/E (ZIKV SPH2015), E T335A (Zika virus (ZIKV SPH2015)). Description: flow cytometry on cells.
Experiment [7] has as its target ZIKV prM/E (ZIKV SPH2015), prM D57A (Zika virus (ZIKV SPH2015)). Description: flow cytometry on cells.
Experiment [8] addresses ZIKV prM/E (ZIKV SPH2015), E H398A (Zika virus (ZIKV SPH2015)). Description: flow cytometry on cells.
The target of experiment [9] is ZIKV prM/E (ZIKV SPH2015), E S368A (Zika virus (ZIKV SPH2015)). Put plainly: flow cytometry on cells.
For experiment [10], the target named is ZIKV prM/E (ZIKV SPH2015), E K301A (Zika virus (ZIKV SPH2015)). Put plainly: flow cytometry on cells.
For experiment [11], the target named is ZIKV prM/E (ZIKV SPH2015), E E162A (Zika virus (ZIKV SPH2015)). Put plainly: flow cytometry on cells.
Experiment [12] has as its target ZIKV prM/E (ZIKV SPH2015), E G182A (Zika virus (ZIKV SPH2015)). Description: flow cytometry on cells.
The target in experiment [13] is ZIKV prM/E (ZIKV SPH2015), E G302A (Zika virus (ZIKV SPH2015)). Put plainly: flow cytometry on cells.
The target of experiment [14] is ZIKV prM/E (ZIKV SPH2015), E T309A (Zika virus (ZIKV SPH2015)). Put plainly: flow cytometry on cells.
The target of experiment [15] is ZIKV prM/E (ZIKV SPH2015), prM G59A (Zika virus (ZIKV SPH2015)). Put plainly: flow cytometry on cells.
Experiment [16] addresses ZIKV prM/E (ZIKV SPH2015), E I317A (Zika virus (ZIKV SPH2015)). Put plainly: flow cytometry on cells.
Experiment [17] concerns the target ZIKV prM/E (ZIKV SPH2015), prM E58A (Zika virus (ZIKV SPH2015)). Put plainly: flow cytometry on cells.
Experiment [18] has as its target ZIKV prM/E (ZIKV SPH2015), E T369A (Zika virus (ZIKV SPH2015)). Description: flow cytometry on cells.
For experiment [19], the target named is ZIKV prM/E (ZIKV SPH2015), E G337A (Zika virus (ZIKV SPH2015)). Description: flow cytometry on cells.
Experiment [20] deals with T2, ZIKV virus-like particles (Suriname Z1106033) (Zika virus, Suriname Z1106033, UniProt A0A0U4DG08, strain).
T2 construct: also called ZIKV-VLP; VLP; source: bought: The Native Antigen Company
Put plainly: BLI; Octet HTX; MAb 0.1 to 0.3 μg/mL amine-coupled to AR2G biosensor; ZIKV-VLP 0.1 to 1.0 μg/mL or ZIKV E protein 0.2 to 2 μg/mL in 1x kinetic buffer; association 900 s, dissociation 1,200 s; Langmuir 1:1 model; average of two runs. To be noted: both partners purified.

Experiment [21] has as its target T3, ZIKV E protein (Suriname Z1106033) (Zika virus, Suriname Z1106033, UniProt A0A0U4DG08, strain).
T3 construct: also called soluble ZIKV E protein
The experiment is described as above. As to conditions: both partners purified.

The target of experiment [22] is T4, ZIKV prM protein of heat-denatured ZIKV-VLP (Western band) (Zika virus, Suriname Z1106033, UniProt A0A0U4DG08, strain).
T4 construct: subunit of m13; also called precursor membrane protein
Put plainly: Western blot (Wes capillary electrophoresis); 27 or 240 ng ZIKV-VLP denatured at 70°C for 5 min without reducing agent, electrophoresed, probed with 10 μg/mL MAb. To be noted: both partners purified. On the technique in general: A western blot detects proteins with antibodies after separation by electrophoresis.

Experiment [23] concerns the target ZIKV prM/E (ZIKV SPH2015), E G100A (Zika virus (ZIKV SPH2015)). Put plainly: flow cytometry on cells.
In experiment [24] the target is ZIKV prM/E (ZIKV SPH2015), E L107A (Zika virus (ZIKV SPH2015)). Description: flow cytometry on cells.
Experiment [25] has as its target T3, ZIKV E protein (Suriname Z1106033). Put plainly: cell-based or functional assay.

B1: anti-ZIKV MAb 78-2 (antibody, V domains shown)
VH: QQQLVESGGGLVKPGASLTLNCKASGLDFSTNSYMCWVRQAPGKGLEWIACIYVGDSSEIYYASWAKGRFTISKTSSTTVTLQMTSLTAADTATYFCARDLPSFTAPYAGYLRLWGPGTLVTVSS
VL: QPVLTQPPSLSASLGTTARLTCTLRTGYNVGDYPLLWLQRVPGRPPRYLLTYHTEEFKHQGSGVHSRFSGSKDASENAGVLSISGLQPEDEANYYCYTVHATESSLHYVFGGGTQLTVT
What is called Kd is a measure of binding affinity in units of concentration. A lower Kd goes with tighter binding. The koff is the first-order rate constant of dissociation. High values mean fast dissociation, low ones slow dissociation. The term kon denotes the second-order rate constant of association. Turning to B1, in [1], the binding result is recorded as “binds”. The antibody binding reactivity (% WT) amounted to 147 % WT in experiment [2]; 92.7 % WT in [3]; 97.2 % WT in experiment [4]; 113 % WT in experiment [5]; 71.6 % WT in [6]; 123 % WT in experiment [7]. In addition, the antibody binding reactivity (% WT) in experiment [8] turned out to be 92.9 % WT; in [9], 87.5 % WT; in experiment [10] it was 82.5 % WT; in experiment [11] it was 101 % WT; in [12], 110 % WT; in [13] it was 69.2 % WT. Also, the antibody binding reactivity (% WT) in experiment [14] stood at 96.2 % WT; in experiment [15] it was 117 % WT; in experiment [16] it was 61.2 % WT; in [17], 130 % WT; in experiment [18] it was 113 % WT; in experiment [19], 59.7 % WT. Moreover, the dissociation constant Kd in experiment [20] worked out at 190 pM; in experiment [21] it was 100 pM. Further, the koff in experiment [20] is 4.28e-05 s⁻¹; in experiment [21], 1.94e-05 s⁻¹. For the same molecule, the figures for the kon in [20] and in [21] were 221000 M⁻¹ s⁻¹ and 192000 M⁻¹ s⁻¹, respectively.

B2: anti-ZIKV MAb 278-11 (antibody, V domains shown)
VH: QSLEESGGGLVQPEGSLTLACTASEFDSSSNAMCWVRQAPGKGLEWIARIYSGSGTIYYANWARGRFTISKTSSTTVTLQMTSLTDADTATYFCARYNTGGFYYDLWGPGTLVTVSS
VL: ALVMTQTPASVEAAVGGTVTINCQASQRIGTNLAWYQQKPGQPPKVLIYKASTLASGVSSRFIGSGSGTDYTLTISGVECDDAATYYCQQGYSSNDADNTFGGGTEVVVK
notes: recombinant rabbit IgG; source: 293-6E cells, cotransfected, purified (MabSelect SuRe protein A)
As to B2, the binding result in [22] and in experiment [1] was “binds” in each case. The antibody binding reactivity (% WT) came to 77.8 % WT in [11], 85.9 % WT in experiment [12], 28.5 % WT in experiment [15] and 95.1 % WT in [23].

B3: anti-ZIKV MAb 242-3 (antibody, V domains shown)
VH: QAQLEESGGDLVKPEGSLTLTCTASGFSFTDRHYMCWIRQAPGKGLEWIACVYPGSSGSTYYASWARGRFTISKTSSTTVTLRMTSLTAADTATYFCARSSYPDSSGYSYGMDLWGPGTLVTVSS
VL: DIVMTQTPASVEAAVGGTVTIKCQASQNINSNLAWYQQKPGQRPKFLMYLTSKLASGVPSRFRGSGSGTQFTLTISDLECADAATYYCQTYYDISNYGYAFGGGTEVVVK
notes: recombinant rabbit IgG; 99% amino acid identity with 270-12
With B3, the binding result in experiment [1] is listed as “binds”. In addition, the antibody binding reactivity (% WT) in experiment [2] is 111 % WT; in experiment [4] it was 127 % WT; in experiment [5], 97.2 % WT; in experiment [6] it was 36.2 % WT; in experiment [7] it was 91.9 % WT; in [8] it was 77.2 % WT. In addition, the antibody binding reactivity (% WT) in [9] was 89.1 % WT; in [24], 122 % WT; in [10], 78.7 % WT; in experiment [11] it was 79.6 % WT; in experiment [12], 85.6 % WT; in experiment [13], 68.3 % WT. Further, the antibody binding reactivity (% WT) in experiment [14] amounted to 104 % WT; in experiment [15], 94.9 % WT; in experiment [16] it was 112 % WT; in experiment [23] it was 70.3 % WT; in experiment [17], 96.8 % WT; in experiment [18], 34.5 % WT. For the same molecule, the antibody binding reactivity (% WT) in [19] stood at 48.3 % WT. In addition, the figures for the equilibrium dissociation constant (Kd) in experiment [20] and in experiment [21] were 240 pM and 1220 pM, respectively. The koff in [20] was 4.93e-05 s⁻¹; in experiment [21], 8.16e-05 s⁻¹. The kon turned out to be 202000 M⁻¹ s⁻¹ in [20] and 67100 M⁻¹ s⁻¹ in experiment [21]. The molecule further registered an other in [25] of 42.8 ng/mL.
